In article PMC10071043, “Cryo-EM structure of the RuvAB-Holliday junction intermediate complex from Pseudomonas aeruginosa” (Frontiers in Plant Science, 2023):

T1: PaRuvA (Pseudomonas aeruginosa, UniProt Q51425 1-201)
T1 sequence: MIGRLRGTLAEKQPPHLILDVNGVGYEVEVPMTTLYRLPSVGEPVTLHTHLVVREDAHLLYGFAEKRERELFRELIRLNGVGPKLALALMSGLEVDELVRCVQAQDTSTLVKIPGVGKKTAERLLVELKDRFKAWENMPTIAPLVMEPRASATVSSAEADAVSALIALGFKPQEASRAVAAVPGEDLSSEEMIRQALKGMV

B1: HJ2 (HJ2-A/B/C/D) (structured_DNA)
DNA 1: CACTGTGATGCACGATGATAGAACACAGTACTCAGTGCTGCAGTGCTCAGGTGTG
DNA 2: ATACAGATGTAGAGCCAGCACTGAGTACTGTGTTCTATCATCGTGCATCACAGTG
DNA 3: CACTGTGATGGCATGTATCCGAACACAGTACTCAGTGCTGGCTCTACATCTGTAT
DNA 4: CACACCTGAGCACTGCAGCACTGAGTACTGTGTTCGGATACATGCCATCACAGTG
B2: Pseudomonas aeruginosa RuvB (enzyme, UniProt Q51426 1-352, looked up)
chain: MIEPDRLISAVSGRERDEQLDRAIRPLKLADYIGQPSVREQMELFIHAARGRQEALDHTLIFGPPGLGKTTLANIIAQEMGVSIKSTSGPVLERPGDLAALLTNLEAGDVLFVDEIHRLSPIVEEVLYPAMEDFQLDIMIGEGPAARSIKLDLPPFTLVGATTRAGMLTNPLRDRFGIVQRLEFYNVEDLATIVSRSAGILGLEIEPQGAAEIAKRARGTPRIANRLLRRVRDFAEVRGQGDITRVIADKALNLLDVDERGFDHLDRRLLLTMIDKFDGGPVGIDNLAAALSEERHTIEDVLEPYLIQQGYIMRTPRGRVVTRHAYLHFGLNIPKRLGPGVTTDLFTSEDGN
notes: RuvB, AAA+ ATPase motor protein of Pseudomonas aeruginosa; cDNA synthesised (GenBank ID 882028); domains N, M and C; In the cryo-EM complex eight RuvB subunits form two open rings of four; only one ring is modelled; GST removed with PreScission protease; also called PaRuvB; source: E. coli BL21 (DE3), purified (GST Sepharose, Source 15Q, Superdex 200); not shown: GST, N-terminal, cleaved
B3: Pseudomonas aeruginosa RuvA (natural protein, UniProt Q51425 1-201, looked up)
chain: T1 sequence
notes: cDNA synthesised (GenBank ID 879609); domains D1, D2 and D3; In the cryo-EM complex eight RuvA subunits (two tetramers) sandwich one Holliday junction DNA; GST removed with PreScission protease; also called PaRuvA; source: E. coli Rosetta (DE3), purified (GST Sepharose, Source 15Q, Superdex 200); not shown: GST, N-terminal, cleaved

Experiments:
PaRuvA;PaRuvB = PaRuvA;PaRuvB (Pseudomonas aeruginosa;Pseudomonas …, UniProt Q51425;Q51426 1-201;1-352, |); experiment: cryo-EM; RuvAB-HJ intermediate complex; PDB assigned from residue and nucleotide counts; binding buffer for cryo-EM not given in material; proteins in 20 mM HEPES pH 7.4, 200 mM NaCl, 15 mM reduced glutathione, 1 mM DTT; DNA annealed in 100 mM HEPES pH 7.4, 50 mM NaCl; details: protein: recombinant;recombinant; tags: GST tag removed (PreScission);GST tag removed (PreScission); chain copies: 8;8; four-way Holliday junction of 4 strands; A/B and C/D annealed first, then mixed
PaRuvA = molecular target: T1, PaRuvA; experiment: cryo-EM; RuvA-HJ core region of the RuvAB-HJ complex, 3.0 A; PDB assigned from residue and nucleotide counts; binding buffer for cryo-EM not given in material; proteins in 20 mM HEPES pH 7.4, 200 mM NaCl, 15 mM reduced glutathione, 1 mM DTT; DNA annealed in 100 mM HEPES pH 7.4, 50 mM NaCl; details: protein: recombinant; tags: GST tag removed (PreScission); chain copies: 8; four-way Holliday junction of 4 strands; A/B and C/D annealed first, then mixed
PaRuvB = PaRuvB (Pseudomonas aeruginosa, UniProt Q51426 1-352); experiment: cryo-EM; RuvB ring on one HJ arm duplex in the RuvAB-HJ complex; RuvB1 and RuvB2 contact DNA via C-terminal beta-hairpins, RuvB3 and RuvB4 DNA-free; PDB assigned from residue and nucleotide counts; binding buffer for cryo-EM not given in material; proteins in 20 mM HEPES pH 7.4, 200 mM NaCl, 15 mM reduced glutathione, 1 mM DTT; DNA annealed in 100 mM HEPES pH 7.4, 50 mM NaCl; details: protein: recombinant; tags: GST tag removed (PreScission); chain copies: 8; four-way Holliday junction of 4 strands; A/B and C/D annealed first, then mixed
[1] = molecular target: the molecule itself; experiment: cryo-EM structure; HJ DNA (HJ2) pre-incubated with RuvA at 4°C for 15 min, then with RuvB for 15 min, RuvA:RuvB:HJ = 8:16:1.2; 50 mM NaCl, 20 mM HEPES pH 7.4, 1 mM ATPγS, 10 mM MgCl2, 1 mM DTT; complex purified on Superose 6
[2] = molecular target: B2; experiment: as above; details: both partners purified

Binder | binding result (PaRuvA;PaRuvB) | binding result (PaRuvA) | binding result (PaRuvB) | stoichiometry N [1] | binding result [2]
B1 | binds | binds | binds | – | –
B2 | – | – | – | 4 | –
B3 | – | – | – | 8 | binds
